Consider one substance from patent publication US20210318312.

Series [1] relates to DLAT K259 Lipoyl peptide.
Series [2] relates to DLAT K259 Acetyl peptide.

Chain of recombinant SIRT5 (Sigma, cat. #SRP0119-100UG) (chain, as listed by the source): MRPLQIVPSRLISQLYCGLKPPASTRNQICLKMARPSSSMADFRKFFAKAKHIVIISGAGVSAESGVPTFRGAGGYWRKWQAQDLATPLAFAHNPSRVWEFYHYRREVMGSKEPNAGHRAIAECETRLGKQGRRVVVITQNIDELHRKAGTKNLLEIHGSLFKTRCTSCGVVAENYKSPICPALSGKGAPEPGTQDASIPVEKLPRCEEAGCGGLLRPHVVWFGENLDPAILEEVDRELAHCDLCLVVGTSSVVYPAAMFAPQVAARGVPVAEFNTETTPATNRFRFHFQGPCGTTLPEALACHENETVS

Consider “recombinant SIRT5 (Sigma, cat. #SRP0119-100UG)”, for which the “in vitro deacylation kinetics” value in series [1] is given as “no activity was detected for DLAT lipoyl (SEQ ID NO: 8) reactions”; in series [2], “low, but detectable activity was measured for DLAT acetyl”.
